The source of these data is PMC314469, “Protein Interaction Networks by Proteome Peptide Scanning” (PLoS Biology, 2004).

Common to all, as to assay: SPOT array
In assay [1] the target is T1, Boi2 SH3 (BOI2_YEAST), P39969.
T1 chain: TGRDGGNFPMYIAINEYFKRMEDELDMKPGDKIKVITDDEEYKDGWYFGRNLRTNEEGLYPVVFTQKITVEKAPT

Assay [2] addresses T2, Rvs167 SH3 (RV167_YEAST), P39743.
T2 chain: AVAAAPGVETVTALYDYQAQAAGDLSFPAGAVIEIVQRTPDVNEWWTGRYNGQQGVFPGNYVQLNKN

For assay [3], the target named is T3, Myo5 SH3 (MYO5_YEAST), Q04439.
T3 chain: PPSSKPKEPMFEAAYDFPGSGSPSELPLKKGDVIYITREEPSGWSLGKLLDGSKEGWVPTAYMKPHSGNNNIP

Assay [4] deals with T4, Yfr024 SH3 (LSB3_YEAST), P43603.
T4 chain: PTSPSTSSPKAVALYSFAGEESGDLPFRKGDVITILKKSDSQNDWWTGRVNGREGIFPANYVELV

Assay [5] has as its target Sho1 SH3 (SHO1_YEAST), P40073.
Assay [6] has as its target T5, Yhr016c SH3 (YSC84_YEAST), P32793.
T5 chain: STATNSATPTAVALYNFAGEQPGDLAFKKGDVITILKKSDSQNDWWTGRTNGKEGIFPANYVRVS

The target of assay [7] is T6, Boi1 SH3 (BOI1_YEAST), P38041.
T6 chain: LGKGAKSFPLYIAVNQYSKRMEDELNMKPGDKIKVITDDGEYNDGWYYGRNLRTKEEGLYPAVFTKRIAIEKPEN

Chain of Sho1 SH3 (SHO1_YEAST), P40073 (P40073 295-366): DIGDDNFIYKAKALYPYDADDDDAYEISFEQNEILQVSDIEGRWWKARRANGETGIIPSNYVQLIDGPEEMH

On to KDFSKNAPYNPSEV [YPR022C 111-124], for which the normalised SPOT signal, Boehringer light units (BLU); mean over the file's lines of this peptide in assay [1] was found to be 53.8; in assay [2], 63.7; in assay [3], 143; in assay [4], 0; in assay [5] it was 42; in assay [6] it was 59.1. Besides, in assay [7], the normalised SPOT signal, Boehringer light units (BLU); mean over the file's lines of this peptide amounted to 76.6.
Consider IYHSKKQPLVPIGS [YML030W 25-38], for which the normalised SPOT signal, Boehringer light units (BLU); mean over the file's lines of this peptide in assay [1] was 21; in assay [2] it was 160; in assay [3] it was 294; in assay [4] it was 189; in assay [5], 144; in assay [6], 86.8. The molecule further showed a normalised SPOT signal, Boehringer light units (BLU); mean over the file's lines of this peptide in assay [7] of 182.
Turning to ITAEKSAPTSPEVY [YMR219W 1471-1484], the normalised SPOT signal, Boehringer light units (BLU); mean over the file's lines of this peptide is 0 in assay [1]; 3.5 in assay [2]; 94.2 in assay [3]; 63.9 in assay [4]; 116 in assay [5]; 71.1 in assay [6]. Moreover, in assay [7], the normalised SPOT signal, Boehringer light units (BLU); mean over the file's lines of this peptide was determined as 92.4.
Turning to KALWKIQPYLPEFS [YML130C 280-293], the normalised SPOT signal, Boehringer light units (BLU); mean over the file's lines of this peptide was found to be 47.8 in assay [1]; 41.7 in assay [2]; 146 in assay [3]; 201 in assay [4]; 178 in assay [5]; 43 in assay [6]. The same molecule showed a normalised SPOT signal, Boehringer light units (BLU); mean over the file's lines of this peptide in assay [7] of 0.
Take IVNEKRTPALPSNL [YOR191W 260-273]: the normalised SPOT signal, Boehringer light units (BLU); mean over the file's lines of this peptide in assay [1] was determined as 20.9; in assay [2], 51.5; in assay [3], 102; in assay [4], 74.4; in assay [5], 86.8; in assay [6], 11.6. For the same molecule, the normalised SPOT signal, Boehringer light units (BLU); mean over the file's lines of this peptide in assay [7] was 73.8.
With KDEVKLHPPEPKDL [YIL009W 251-264], the normalised SPOT signal, Boehringer light units (BLU); mean over the file's lines of this peptide in assay [1] was 2.4; in assay [2] it was 32.3; in assay [3] it was 164; in assay [4], 0; in assay [5], 50.6; in assay [6], 18.9. The normalised SPOT signal, Boehringer light units (BLU); mean over the file's lines of this peptide in assay [7] came to 102.
Take KAALKYHPDKPTGD [YNL007C 28-41]: the normalised SPOT signal, Boehringer light units (BLU); mean over the file's lines of this peptide amounted to 18.7 in assay [1]; 84.8 in assay [2]; 156 in assay [3]; 32.9 in assay [4]; 60.7 in assay [5]; 18.6 in assay [6]. This molecule showed a normalised SPOT signal, Boehringer light units (BLU); mean over the file's lines of this peptide in assay [7] of 21.4.
As for ISHNKLSPSEPILS [YER132C 703-716], the normalised SPOT signal, Boehringer light units (BLU); mean over the file's lines of this peptide in assay [1] came out at 34; in assay [2] it was 48.3; in assay [3] it was 206; in assay [4], 0; in assay [5] it was 19.4; in assay [6] it was 22.7. The normalised SPOT signal, Boehringer light units (BLU); mean over the file's lines of this peptide in assay [7] worked out at 0.
For the molecule ISNRRPVPRRPSQP [YPR091C 658-671], the normalised SPOT signal, Boehringer light units (BLU); mean over the file's lines of this peptide in assay [1] worked out at 56.9; in assay [2], 82100; in assay [3], 377; in assay [4], 36800; in assay [5], 129; in assay [6] it was 17200. In assay [7], this molecule yielded a normalised SPOT signal, Boehringer light units (BLU); mean over the file's lines of this peptide of 4610.
In the case of ITSIRGSPSLPKNK [YKL071W 35-48], the normalised SPOT signal, Boehringer light units (BLU); mean over the file's lines of this peptide is 31.5 in assay [1]; 104 in assay [2]; 370 in assay [3]; 1400 in assay [4]; 111 in assay [5]; 44.2 in assay [6]. The same molecule gave a normalised SPOT signal, Boehringer light units (BLU); mean over the file's lines of this peptide in assay [7] of 420.
As for KALPKRRPSPPLQS [YKR019C 209-222], the normalised SPOT signal, Boehringer light units (BLU); mean over the file's lines of this peptide was 30.5 in assay [1]; 906 in assay [2]; 1140 in assay [3]; 13400 in assay [4]; 758 in assay [5]; 2190 in assay [6]. Also, in assay [7], the normalised SPOT signal, Boehringer light units (BLU); mean over the file's lines of this peptide came to 1770.
With ITRARYMPQDPNIV [YEL056W 121-134], the normalised SPOT signal, Boehringer light units (BLU); mean over the file's lines of this peptide in assay [1] was determined as 70.9; in assay [2], 111; in assay [3], 190; in assay [4], 486; in assay [5], 153; in assay [6] it was 84.6. In addition, the normalised SPOT signal, Boehringer light units (BLU); mean over the file's lines of this peptide in assay [7] came to 2220.
With ITDTKLFPGNPNLM [YFR029W 524-537], the normalised SPOT signal, Boehringer light units (BLU); mean over the file's lines of this peptide was 2.3 in assay [1]; 67.4 in assay [2]; 94.6 in assay [3]; 28.7 in assay [4]; 43.8 in assay [5]; 15.4 in assay [6]. In assay [7], this molecule gave a normalised SPOT signal, Boehringer light units (BLU); mean over the file's lines of this peptide of 113.
Take KDKARGNPEKPPYW [YJL036W 14-27]: the normalised SPOT signal, Boehringer light units (BLU); mean over the file's lines of this peptide in assay [1] is 15.2; in assay [2], 67.1; in assay [3] it was 59.9; in assay [4], 63.5; in assay [5], 50.3; in assay [6], 19.5. In assay [7], the normalised SPOT signal, Boehringer light units (BLU); mean over the file's lines of this peptide amounted to 247.
